Data from patent publication US20180250395A1 (Janssen / Centocor, published 2018).

Molecular target: T1, recombinant human CD47 extracellular domain (ECD), His-tagged, monomer (human, UniProt Q08722 19-141)
T1 construct: C-terminal 6xHis tag; monomeric fraction from Superdex 200; also called human CD47 ECD; CD47-ECD monomer
Assay: method not restated

B1: C47B167 (antibody, V domains shown)
VH: EVQLVQSGAEVKKPGESLKISCKGSGYTFTSYWMQWVRQMPGKGLEWMGEINPSNGRTDYNEKFRGQVTISADKSISTAYLQWSSLKASDTAMYYCARQGGSGYGNSYGFFDVWGQGTTVTVSS
VL: EIVLTQSPATLSLSPGERATLSCRASSSVSYMHWYQQKPGQAPRLLIYDTSRLASGIPARFSGSGSGTDFTLTISSLEPEDFAVYYCQQWRSNPYTFGGGTKVEIK
notes: isotype not restated
Kd: 5.2 nM
